Source: doi:10.1101/2022.05.01.490205 (bioRxiv, 2022)

Molecular target: NRR-containing SynNotch receptor (Homo sapiens, UniProt P46531, chimera)
Experiment: immunostaining of cells or tissue

Sequence of NRR-containing SynNotch receptor (P46531 whole entry, looked up, change not shown): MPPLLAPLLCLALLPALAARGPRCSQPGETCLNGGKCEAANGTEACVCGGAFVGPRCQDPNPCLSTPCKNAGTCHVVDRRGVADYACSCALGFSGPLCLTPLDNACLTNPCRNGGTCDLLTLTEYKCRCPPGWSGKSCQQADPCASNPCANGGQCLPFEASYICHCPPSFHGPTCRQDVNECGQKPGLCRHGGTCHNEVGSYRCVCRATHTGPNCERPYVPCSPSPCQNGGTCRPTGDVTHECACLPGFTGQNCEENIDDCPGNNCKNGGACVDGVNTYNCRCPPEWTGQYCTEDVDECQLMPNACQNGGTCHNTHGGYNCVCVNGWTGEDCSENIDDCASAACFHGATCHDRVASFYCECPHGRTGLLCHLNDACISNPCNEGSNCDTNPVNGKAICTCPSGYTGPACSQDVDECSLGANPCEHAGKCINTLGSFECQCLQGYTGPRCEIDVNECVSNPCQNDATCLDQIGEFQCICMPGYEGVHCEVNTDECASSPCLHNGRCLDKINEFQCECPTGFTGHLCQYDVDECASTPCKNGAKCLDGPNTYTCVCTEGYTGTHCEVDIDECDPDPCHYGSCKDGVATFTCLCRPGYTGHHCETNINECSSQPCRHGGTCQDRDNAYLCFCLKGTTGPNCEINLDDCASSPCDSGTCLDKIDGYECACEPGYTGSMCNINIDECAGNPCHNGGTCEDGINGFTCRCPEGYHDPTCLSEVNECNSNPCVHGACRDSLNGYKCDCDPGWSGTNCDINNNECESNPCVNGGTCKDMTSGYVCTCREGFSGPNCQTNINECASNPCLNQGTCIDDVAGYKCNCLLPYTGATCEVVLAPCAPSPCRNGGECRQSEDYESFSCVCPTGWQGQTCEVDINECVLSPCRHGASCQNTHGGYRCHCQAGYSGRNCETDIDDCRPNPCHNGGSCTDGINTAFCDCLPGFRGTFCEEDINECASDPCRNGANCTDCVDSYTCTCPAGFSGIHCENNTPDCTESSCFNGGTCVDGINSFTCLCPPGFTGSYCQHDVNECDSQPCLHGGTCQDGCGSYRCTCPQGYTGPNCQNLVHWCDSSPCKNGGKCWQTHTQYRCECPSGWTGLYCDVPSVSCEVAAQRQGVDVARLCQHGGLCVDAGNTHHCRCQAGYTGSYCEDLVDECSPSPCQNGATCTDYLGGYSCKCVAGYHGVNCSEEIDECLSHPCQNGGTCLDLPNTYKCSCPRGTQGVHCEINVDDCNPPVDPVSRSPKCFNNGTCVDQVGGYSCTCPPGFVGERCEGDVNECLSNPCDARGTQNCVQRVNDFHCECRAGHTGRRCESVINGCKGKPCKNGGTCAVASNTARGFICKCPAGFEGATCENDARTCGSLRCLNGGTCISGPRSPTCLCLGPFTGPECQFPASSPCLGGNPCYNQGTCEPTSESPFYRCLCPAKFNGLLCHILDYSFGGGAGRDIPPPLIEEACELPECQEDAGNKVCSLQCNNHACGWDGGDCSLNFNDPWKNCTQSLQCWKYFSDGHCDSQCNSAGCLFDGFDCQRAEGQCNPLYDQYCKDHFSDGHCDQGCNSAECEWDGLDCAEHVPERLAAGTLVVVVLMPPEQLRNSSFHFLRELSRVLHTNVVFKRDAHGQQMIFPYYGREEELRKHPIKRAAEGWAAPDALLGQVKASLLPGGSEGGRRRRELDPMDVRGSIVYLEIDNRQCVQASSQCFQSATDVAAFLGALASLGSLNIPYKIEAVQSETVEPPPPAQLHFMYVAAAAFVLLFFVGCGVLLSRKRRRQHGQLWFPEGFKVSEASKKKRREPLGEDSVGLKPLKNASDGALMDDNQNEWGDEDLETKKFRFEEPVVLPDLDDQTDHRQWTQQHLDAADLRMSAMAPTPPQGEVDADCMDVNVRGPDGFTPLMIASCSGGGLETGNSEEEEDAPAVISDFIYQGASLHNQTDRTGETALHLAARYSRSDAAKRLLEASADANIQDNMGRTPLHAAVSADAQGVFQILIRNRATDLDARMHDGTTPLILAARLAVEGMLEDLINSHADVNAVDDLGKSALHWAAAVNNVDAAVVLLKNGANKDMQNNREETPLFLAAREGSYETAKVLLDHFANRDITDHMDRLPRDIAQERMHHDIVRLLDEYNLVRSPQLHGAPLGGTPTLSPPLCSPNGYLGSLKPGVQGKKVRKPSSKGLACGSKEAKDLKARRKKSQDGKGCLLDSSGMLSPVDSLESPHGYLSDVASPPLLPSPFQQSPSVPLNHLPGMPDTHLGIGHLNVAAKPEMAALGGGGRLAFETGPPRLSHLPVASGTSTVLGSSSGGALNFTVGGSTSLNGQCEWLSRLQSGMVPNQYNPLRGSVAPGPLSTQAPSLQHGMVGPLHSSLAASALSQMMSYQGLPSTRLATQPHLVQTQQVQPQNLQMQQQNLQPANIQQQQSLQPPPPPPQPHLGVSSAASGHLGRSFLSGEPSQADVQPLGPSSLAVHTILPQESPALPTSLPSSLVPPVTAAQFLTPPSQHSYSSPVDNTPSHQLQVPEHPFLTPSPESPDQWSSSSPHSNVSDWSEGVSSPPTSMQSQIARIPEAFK

B1: soluble anti-NRR scFv (scFv, V domains shown)
VH: EVQLVESGGGLVQPGGSLRLSCAASGFTFSSYWIHWVRQAPGKGLEWVARINPPNRSNQYADSVKGRFTISADTSKNTAYLQMNSLRAEDTAVYYCARGSGFRWVMDYWGQGTLVTVSS
VL: DIQMTQSPSSLSASVGDRVTITCRASQDVSTAVAWYQQKPGKAPKLLIYSASFLYSGVPSRFSGSGSGTDFTLTISSLQPEDFATYYCQQFYTTPSTFGQGTKVEIK
binding result: binds
